Laboratory results from patent US5736356A, “Transglutaminase originating from Crassostrea gigas” (Ajinomoto Co., Inc., priority 1994, dated 1998).
One block for each molecule: values may come before it.

Assays:
dimethylated casein [1] = target: dimethylated casein
dimethylated casein [2] = target: dimethylated casein; remark: listed apart in the source
dimethylated casein [3] = target: dimethylated casein; remark: listed apart in the source
[4] = tested on: dimethylated casein and monodansylcadaverine; experiment: Transglutaminase activity of purification fractions (monodansylcadaverine incorporation into dimethylated casein, fluorescence); format: biochemical
Method: The activity of the transglutaminase is determined by reacting the enzyme with dimethylated casein and monodansylcadaverine as substrates and measuring an increase in the fluorescent intensity of casein due to the incorporation of monodansylcadaverine into the dimethylated casein. The composition of the reaction solution is as follows:
To 2.4 ml of the foregoing reaction solution, there is added 20 to 50 μl of the transglutaminase solution followed by carrying out the reaction at 37° C. for 30 min, terminating the reaction by addition of 100 μl of a 500 mM EDTA solution and then determining the fluorescent intensity of the reaction solution (using a device: RF-1500 available from Shimadzu Corporation; excitation wavelength: 350 nm; wavelength of emitted fluorescent rays: 480 nm). In respect of the unit of the activity, that required for increasing the fluorescent intensity by 1.0 within one minute is herein defined to be one unit.
Thus, the purified transglutaminase originating from Crassostrea gigas was obtained.

[5] = tested on: dimethylated casein and monodansylcadaverine; experiment: Effect of NaCl and Ca2+ on enzyme activity; format: biochemical; details: for effect of NaCl concentration on enzyme activity (in words): increasing NaCl concentration
casein = experiment: Control of gelation of casein solution by NaCl and CaCl2; format: biochemical; parameters: key to degree of gelation: -: the solution was still in the solution state; ±: the solution was a high viscosity product; +: the solution was a gelated product
Method: To an aqueous solution of casein (available from Sigma Company) having a protein concentration of 1% by weight, there was added NaCl in such an amount that the concentration thereof was 0, 0.1 or 0.3M, while variously changing the calcium chloride concentration within the range of from 0 to 200 mM to thus investigate the gelation of the protein. In this connection, the purified transglutaminase was added in an amount corresponding to 4.0 units per 1 mg of the protein. After carrying out the reaction at 37° C. for 90 minutes, the degree of gelation was evaluated.

[6] = tested on: methylated casein and monodansylcadaverine; experiment: Transglutaminase activity of yeast crushed cell extract while changing the NaCl concentration; format: biochemical; details: control: 1.2 μg protein
From the text: The crushed cell extract of the foregoing Saccharomyces cerevisiae INVSC2/pCGTG4S AJ14697 (FERM BP-4964) was inspected for the transglutaminase activity while changing the NaCl concentration in the reaction solution by way of comparison (Table 7).

[7] = tested on: methylated casein and monodansylcadaverine; experiment: Transglutaminase activity of crushed cell extract of transformed Saccharomyces cerevisiae; format: biochemical; details: 0.35 ml supernatant, GAL1 induced; control: 1.2 μg protein
Method: Then the transglutaminase activity of the crude extract was investigated by an activity-detection method which made use of an increase in the intensity of fluorescent light (the fluorescent intensity observed at 480 nm while exciting with the light rays of 350 nm) due to the linkage of monodansylcadaverine to methylated casein as an indication. […] More specifically, 20 μl of each crude extract was added to 2 ml of a solution comprising 50 mM Tris-HCl buffer (pH 8.5), 1 mg/ml methylated casein, 15 μM monodansylcadaverine and 10 mM calcium chloride, followed by stirring and keeping warm at 37° C. for 20 minutes. After the reaction, 100 μl of 500 mM EDTA solution was added to the reaction system and each reaction solution was inspected for the intensity of emitted fluorescent light using a fluorophotometer (Shimadzu RF-1500, available from Shimadzu Corporation).
The transformant was first inoculated on 50 ml of a glucose synthesis minimum medium (prepared by adding 2% glucose and 50 mg/ml of histidine to the foregoing synthesis minimum medium) contained in a Sakaguchi flask and cultivated at 30° C. for 24 hours by shaking culture to increase the number of the cells. […]

[8] = tested on: methylated casein and monodansylcadaverine; experiment: Transglutaminase activity of crushed cell supernatant of transformed Escherichia coli (pCGTG4E); format: biochemical; details: cultivation temp. 26° C.; control: 1.2 μg protein
From the text: Then the transglutaminase activity of the crude extract was investigated by an activity-detection method which made use of an increase in the intensity of fluorescent light (the fluorescent intensity observed at 480 nm while exciting with the light rays of 350 nm) due to the linkage of monodansylcadaverine to methylated casein as an indication. This activity-detection method is the method disclosed in Nippon Suisan Gakkaishi, 1991, 57, pp. 1203-1210 which is slightly modified. More specifically, 20 μl of each crude extract was added to 2 ml of a solution comprising 50 mM Tris-HCl buffer (pH 8.5), 1 mg/ml methylated casein, 15 μM monodansylcadaverine and 10 mM calcium chloride, followed by stirring and keeping warm at 37° C. for 20 minutes. After the reaction, 100 μl of 500 mM EDTA solution was added to the reaction system and each reaction solution was inspected for the intensity of emitted fluorescent light using a fluorophotometer (Shimadzu RF-1500, available from Shimadzu Corporation).
The colony of the transformant (FERM BP-4962) thus obtained was inoculated on 50 ml of LB culture medium (comprising 10 g/l of trypton, 5 g/l of yeast extract and 10 g/l of NaCl (pH 7.0)) supplemented with 50 mg/l of ampicillin and 10 mM of IPTG contained in a Sakaguchi flask, followed by cultivation at 26° C. for 21 hours and collection of the bacterial cells from the culture medium. […]

Increase in Fluorescent Intensity/Cultivation Temp. (increase in fluorescent intensity) (dimethylated casein [2]): 12.8
Molecule: fusion protein of β-galactosidase and the TGase of Crassostrea gigas expressed by plasmid pCGTG4E (enzyme)

Increase in Fluorescent Intensity (increase in fluorescent intensity) (dimethylated casein [3]): 46.6
Molecule: recombinant type transglutaminase of Crassostrea gigas expressed in Saccharomyces cerevisiae INVSC2/pCGTG4S (enzyme)

More lines, now with the values behind:

Molecule: transglutaminase originating from Crassostrea gigas (purified from natural Crassostrea gigas) (enzyme)
Specific Activity (unit/mg): incorporation of monodansylcadaverine into dimethylated casein, fluorescence (dimethylated casein [1]): 1400 unit/mg

Molecule: TGase originated from Cavia porcellus (available from Takara Co., Ltd.) (from UniProt P08587) (enzyme)
Increase in Fluorescent Intensity/Cultivation Temp. (increase in fluorescent intensity) (dimethylated casein [2]): 4.3

B1: purified transglutaminase: transglutaminase isolated and purified from Crassostrea gigas (Japanese oyster); Mono-Q active fraction (protein)
chain: AFWGVFYTIYSGIRRIAGQPPEEDTSDKEQKRSRTKKALGSEEEEGRISSLSDEDLRARNKVLEPKDEPSATLNVSSVDCQTKLNRKNHHTNEFEKAGNIYRRGQAFVIRVEFDREVNSDHDVILLQFTYGSRPQESKGTVIRIPLDLKPTTKTSDVTETWFAEVKNIAGKGLECAITSAPDSSIGEYRFYIETNLKDTDAVKRYEENESMIILFNAWAKEDTVYMDKEGERGEYVLNETGRVWTSRTWYGRPWNFGQFDDPVLDVALQLLLEGGLSDVACTSPVSVIRCLSSLCNSCDNNGVLAGRWTKEYPKDCTVPWKWTGSVAIIKEYHTNGNKPVRYGQCWVFSGLLTTMCRCLGIPTRSVTNFDSAHDTDSSMTIDSHWDEDGEPLEDMNDSVWNFHVWNESWFRRLDLPEGYDGWQAHDATPQEASEGIMRCGPAPLTAIKEGHVYLNFDIPFVFGEVNGDRVQWVVKKDGTMEVSQIDHSAVGHYISTKRMGSNDREDVTNLYKYPDGSEQERRVAKFVNRYSTRRKQNIYKLDTTKVLKFTVSPPDNTLIGDDMEIKVAVKNTADGPLKLHLTVSLVNAYYTGVAGSRVKTQTFEETIKAKDEKIVTMPVKGTEYHDGMNPEGRFQLYISGKNIDSGSMESTQISFVLKKPQLVIQVPQTIEAKEETEATIVFKNTTQLVLTQAEIAVEGSGLLAPQTIDISSPIKPGDEVKKTVVLRPRKPYYWGRELIATFTSKQIVDIETSADIKVIRQNKDNDSDSD
specific activity ([4]; Mono-Q active fraction): 1404 units/mg protein | total activity ([4]; Mono-Q active fraction): 358 units | specific activity ([4]; purification step, Table 1): 1404 unit/mg | total activity ([4]; purification step, Table 1): 368 unit | specific activity relative to that of the crude extract ([4]; purified solution vs crude extract): about 250 times | effect of addition of KCl on enzyme activity (in words) [5]: improved | maximum activity in the presence of NaCl relative to that in the absence [5]: about 2 times | Ca2+ concentration at which the activity reached the highest level ([5]; in the absence of NaCl): about 100 mM | Ca2+ concentration at which the activity reached the highest level ([5]; in the presence of NaCl (0.5M)): about 10 mM | effect of NaCl concentration on enzyme activity (in words) [5]: increased as the NaCl concentration increased | degree of gelation (casein; NaCl 0 M, CaCl2 0 mM, 1% casein, 4.0 units/mg, 37° C. 90 min): - | degree of gelation (casein; NaCl 0 M, CaCl2 10 mM): - | degree of gelation (casein; NaCl 0 M, CaCl2 25 mM): - | degree of gelation (casein; NaCl 0 M, CaCl2 50 mM): ± | degree of gelation (casein; NaCl 0 M, CaCl2 100 mM): + | degree of gelation (casein; NaCl 0 M, CaCl2 200 mM): + | degree of gelation (casein; NaCl 0.1 M, CaCl2 0 mM): - | degree of gelation (casein; NaCl 0.1 M, CaCl2 10 mM): - | degree of gelation (casein; NaCl 0.1 M, CaCl2 25 mM): ± | degree of gelation (casein; NaCl 0.1 M, CaCl2 50 mM): + | degree of gelation (casein; NaCl 0.1 M, CaCl2 100 mM): + | degree of gelation (casein; NaCl 0.1 M, CaCl2 200 mM): ± | Ca2+ concentration at which the casein solution underwent gelation (casein; NaCl 0.3M): not less than 25 mM | degree of gelation (casein; NaCl 0.3 M, CaCl2 0 mM): - | degree of gelation (casein; NaCl 0.3 M, CaCl2 10 mM): ± | degree of gelation (casein; NaCl 0.3 M, CaCl2 25 mM): + | degree of gelation (casein; NaCl 0.3 M, CaCl2 50 mM): + | degree of gelation (casein; NaCl 0.3 M, CaCl2 100 mM): + | degree of gelation (casein; NaCl 0.3 M, CaCl2 200 mM): + | Ca2+ concentration at which the casein solution underwent gelation (casein; free of NaCl): not less than 100 mM

B2: TGase of Cavia porcellus: TGase originated from Cavia porcellus (available from Takara Co., Ltd.), used as control (protein)
chain: AEDLILERCDLQLEVNGRDHRTADLCRERLVLRRGQPFWLTLHFEGRGYEAGVDTLTFNAVTGPDPSEEAGTMARFSLSSAVEGGTWSASAVDQQDSTVSLLLSTPADAPIGLYRLSLEASTGYQGSSFVLGHFILLYNPRCPADAVYMDSDQERQEYVLTQQGFIYQGSAKFINGIPWNFGQFEDGILDICLMLLDTNPKFLKNAGQDCSRRSRPVYVGRVVSAMVNCNDDQGVLQGRWDNNYSDGVSPMSWIGSVDILRRWKDYGCQRVKYGQCWVFAAVACTVLRCLGIPTRVVTNFNSAHDQNSNLLIEYFRNESGEIEGNKSEMIWNFHCWVESWMTRPDLEPGYEGWQALDPTPQEKSEGTYCCGPVPVRAIKEGHLNVKYDAPFVFAEVNADVVNWIRQKDGSLRKSINHLVVGLKISTKSVGRDEREDITHTYKYPEGSEEEREAFVRANHLNKLATKEEAQEETGVAMRIRVGQNMTMGSDFDIFAYITNGTAESHECQLLLCARIVSYNGVLGPVCSTNDLLNLTLDPFSENSIPLHILYEKYGDYLTESNLIKVRGLLIEPAANSYVLAERDIYLENPEIKIRVLGEPKQNRKLIAEVSLKNPLPVPLLGCIFTVEGAGLTKDQKSVEVPDPVEAGEQAKVRVDLLPTEVGLHKLVVNFECDKLKAVKGYRNVIIGPA
Increase in Fluorescent Intensity [6]: 3.5 | Increase in Fluorescent Intensity [7]: 3.4 | effect of NaCl concentration on enzyme activity (in words) [5]: did not show any increase | Increase in Fluorescent Intensity [8]: 4.3
